Results as given in the supplement of paper PMC10567573.

B1: KLHL20 (parent)
chain: YQDMIYAVGGRDDTTELSSAERYN
B2: BTBD1 (parent)
chain: YGSIHGPTDYQVNIQIIEYEKKQT

Variants of: B1
Test: protein stability index of a GFP-peptide fusion (GPS, HEK-293T) (PSI 1-6); higher = more stable
Conditions: c terminus: a fixed tail appended
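Note: lentivirally expressed fusions sorted by FACS into six bins by GFP to DsRed ratio, PSI derived from sequencing read proportions per bin multiplied by bin number.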

Variant | protein stability index
YQDMIYAVGGRDDTTELSSAERYV [N24V] | 1.75
YQDMIYAVGGRDDTTELSSAERYT [N24T] | 1.85
YQDMIYAVGGRDDTTELSSAERYC [N24C] | 2.02
YQDMIYAVGGRDDTTELSSAERYE [N24E] | 2.66
YQDMIYAVGGRDDTTELSSAERYW [N24W] | 1.93
YQDMIYAVGGRDDTTELSSAERYK [N24K] | 2.16
YQDMIYAVGGRDDTTELSSAERYL [N24L] | 2.69
YQDMIYAVGGRDDTTELSSAERYQ [N24Q] | 2.48
YQDMIYAVGGRDDTTELSSAERYR [N24R] | 2.7
YQDMIYAVGGRDDTTELSSAERYM [N24M] | 2.08
YQDMIYAVGGRDDTTELSSAERYS [N24S] | 2.24
YQDMIYAVGGRDDTTELSSAERYI [N24I] | 2.02
YQDMIYAVGGRDDTTELSSAERYY [N24Y] | 2.31
YQDMIYAVGGRDDTTELSSAERYH [N24H] | 2.44
YQDMIYAVGGRDDTTELSSAERYG [N24G] | 2.99
YQDMIYAVGGRDDTTELSSAERYD [N24D] | 3.62
YQDMIYAVGGRDDTTELSSAERYF [N24F] | 2.41
YQDMIYAVGGRDDTTELSSAERYA [N24A] | 1.75
YQDMIYAVGGRDDTTELSSAERYP [N24P] | 2.42

Variant | protein stability index
YQDMIYAVGGRDDTTELSSAEREN [Y23E] | 2.77
YQDMIYAVGGRDDTTELSSAERHN [Y23H] | 2.64
YQDMIYAVGGRDDTTELSSAERTN [Y23T] | 2.37
YQDMIYAVGGRDDTTELSSAERIN [Y23I] | 1.93
YQDMIYAVGGRDDTTELSSAERFN [Y23F] | 2.13
YQDMIYAVGGRDDTTELSSAERDN [Y23D] | 2.98
YQDMIYAVGGRDDTTELSSAERGN [Y23G] | 2.18
YQDMIYAVGGRDDTTELSSAERKN [Y23K] | 2.74
YQDMIYAVGGRDDTTELSSAERCN [Y23C] | 2.32
YQDMIYAVGGRDDTTELSSAERMN [Y23M] | 2.29
YQDMIYAVGGRDDTTELSSAERSN [Y23S] | 2.54
YQDMIYAVGGRDDTTELSSAERPN [Y23P] | 2.72
YQDMIYAVGGRDDTTELSSAERQN [Y23Q] | 3.05
YQDMIYAVGGRDDTTELSSAERRN [Y23R] | 2.77
YQDMIYAVGGRDDTTELSSAERLN [Y23L] | 2.25
YQDMIYAVGGRDDTTELSSAERWN [Y23W] | 3
YQDMIYAVGGRDDTTELSSAERNN [Y23N] | 2.59
YQDMIYAVGGRDDTTELSSAERVN [Y23V] | 2.93

Variants of: B2
Test: as above
Conditions: c terminus: a fixed tail appended

Variant | protein stability index
YGSIHYPTDYQVNIQIIEYEKKQT [G6Y] | 2.44
YGSIHNPTDYQVNIQIIEYEKKQT [G6N] | 3.4
YGSIHHPTDYQVNIQIIEYEKKQT [G6H] | 3
YGSIHCPTDYQVNIQIIEYEKKQT [G6C] | 2.81
YGSIHFPTDYQVNIQIIEYEKKQT [G6F] | 1.63
YGSIHIPTDYQVNIQIIEYEKKQT [G6I] | 2.17
YGSIHMPTDYQVNIQIIEYEKKQT [G6M] | 2.85
YGSIHQPTDYQVNIQIIEYEKKQT [G6Q] | 3.26
YGSIHPPTDYQVNIQIIEYEKKQT [G6P] | 3.18
YGSIHSPTDYQVNIQIIEYEKKQT [G6S] | 3.15
YGSIHTPTDYQVNIQIIEYEKKQT [G6T] | 3.19
YGSIHLPTDYQVNIQIIEYEKKQT [G6L] | 2.6
YGSIHVPTDYQVNIQIIEYEKKQT [G6V] | 2.21
YGSIHWPTDYQVNIQIIEYEKKQT [G6W] | 2.71
YGSIHAPTDYQVNIQIIEYEKKQT [G6A] | 2.96
YGSIHEPTDYQVNIQIIEYEKKQT [G6E] | 3.54
YGSIHRPTDYQVNIQIIEYEKKQT [G6R] | 2.88
YGSIHKPTDYQVNIQIIEYEKKQT [G6K] | 3
YGSIHDPTDYQVNIQIIEYEKKQT [G6D] | 3.61

Variant | protein stability index
YGSICGPTDYQVNIQIIEYEKKQT [H5C] | 2.41
YGSIGGPTDYQVNIQIIEYEKKQT [H5G] | 3.06
YGSILGPTDYQVNIQIIEYEKKQT [H5L] | 2.88
YGSIWGPTDYQVNIQIIEYEKKQT [H5W] | 2.09
YGSIMGPTDYQVNIQIIEYEKKQT [H5M] | 2.73
YGSIQGPTDYQVNIQIIEYEKKQT [H5Q] | 2.78
YGSIAGPTDYQVNIQIIEYEKKQT [H5A] | 3.31
YGSIEGPTDYQVNIQIIEYEKKQT [H5E] | 3.71
YGSIYGPTDYQVNIQIIEYEKKQT [H5Y] | 1.98
YGSIPGPTDYQVNIQIIEYEKKQT [H5P] | 3.29
YGSIKGPTDYQVNIQIIEYEKKQT [H5K] | 3.72
YGSITGPTDYQVNIQIIEYEKKQT [H5T] | 2.52
YGSIDGPTDYQVNIQIIEYEKKQT [H5D] | 3.09
YGSIFGPTDYQVNIQIIEYEKKQT [H5F] | 1.99
YGSINGPTDYQVNIQIIEYEKKQT [H5N] | 2.13
YGSIRGPTDYQVNIQIIEYEKKQT [H5R] | 2.98
YGSIVGPTDYQVNIQIIEYEKKQT [H5V] | 2.04
YGSISGPTDYQVNIQIIEYEKKQT [H5S] | 3.26
YGSIIGPTDYQVNIQIIEYEKKQT [H5I] | 2.67

Variant | protein stability index
TGSIHGPTDYQVNIQIIEYEKKQT [Y1T] | 3.83
SGSIHGPTDYQVNIQIIEYEKKQT [Y1S] | 3.79
CGSIHGPTDYQVNIQIIEYEKKQT [Y1C] | 3.4
NGSIHGPTDYQVNIQIIEYEKKQT [Y1N] | 3.32
RGSIHGPTDYQVNIQIIEYEKKQT [Y1R] | 3.44
GGSIHGPTDYQVNIQIIEYEKKQT [Y1G] | 3.66
IGSIHGPTDYQVNIQIIEYEKKQT [Y1I] | 2.92
EGSIHGPTDYQVNIQIIEYEKKQT [Y1E] | 3.93
QGSIHGPTDYQVNIQIIEYEKKQT [Y1Q] | 3.8
KGSIHGPTDYQVNIQIIEYEKKQT [Y1K] | 3.15
PGSIHGPTDYQVNIQIIEYEKKQT [Y1P] | 3.67
LGSIHGPTDYQVNIQIIEYEKKQT [Y1L] | 2.94
VGSIHGPTDYQVNIQIIEYEKKQT [Y1V] | 3.84
AGSIHGPTDYQVNIQIIEYEKKQT [Y1A] | 3.35
FGSIHGPTDYQVNIQIIEYEKKQT [Y1F] | 2.52
MGSIHGPTDYQVNIQIIEYEKKQT [Y1M] | 3.73
WGSIHGPTDYQVNIQIIEYEKKQT [Y1W] | 2.67
HGSIHGPTDYQVNIQIIEYEKKQT [Y1H] | 3.45
DGSIHGPTDYQVNIQIIEYEKKQT [Y1D] | 3.93
